Legend:
[1] = target: T1, Recombinant Human DLL4 (delta-like protein 4) (human, UniProt Q9NR61 27-524); assay: ELISA, plate-coated DLL4, Fab 25 nM
T1 construct: also called rHuman DLL4

[2] = target: T1, Recombinant Human DLL4 (delta-like …); assay: ELISA, plate-coated DLL4, Fab 50 nM
[3] = target: T1, Recombinant Human DLL4 (delta-like …); assay: ELISA, plate-coated DLL4, Fab 100 nM
[4] = target: T1, Recombinant Human DLL4 (delta-like …); assay: ELISA, plate-coated DLL4, Fab 12.5 nM
[5] = target: T1, Recombinant Human DLL4 (delta-like …); assay: ELISA, plate-coated DLL4, Fab 6.25 nM
[6] = target: T1, Recombinant Human DLL4 (delta-like …); assay: ELISA, plate-coated DLL4, Fab 3.125 nM
[7] = target: T2, Recombinant Human DLL4 (delta-like protein 4) (human, UniProt Q9NR61 27-524); assay: ECL binding assay on immobilized DLL4, Fab at 0.04 µM
T2 construct: Bought recombinant human DLL4 (R&D Systems Cat#1506-D4/CF); also called rHuman DLL4; Delta-like ligand 4

B1: Fab VH1-46_IGHD6-6*01_IGHJ1*01 S102A/S103P/S104F/H111F (APFF) & L6_IGKJ1*01 S28N/S30D/S31H S52L (Fab, V domains shown)
VH: QVQLVQSGAEVKKPGASVKVSCKASGYTFTSYYMHWVRQAPGQGLEWMGIINPSGGSTSYAQKFQGRVTMTRDTSTSTVYMELSSLRSEDTAVYYCAREEYAPFSAEYFQFWGQGTLVTVSS
VL: EIVLTQSPATLSLSPGERATLSCRASQNVDHYLAWYQQKPGQAPRLLIYDALNRATGIPARFSGSGSGTDFTLTISSLEPEDFAVYYCQQRSNWPPWTFGQGTKVEIKR
notes: Fab made in E. coli: VH in plasmid A (CH1, His6 and Flag tags), VL in plasmid C (kappa CL); also called H:APFF & L:NDH S52L; APFF / NDH/S52L
- ELISA signal at 25 nM Fab [1]: 0.335
- ELISA signal at 50 nM Fab [2]: 0.546
- ELISA signal at 100 nM Fab [3]: 0.791
- ELISA signal at 12.5 nM Fab [4]: 0.215
- ELISA signal at 6.25 nM Fab [5]: 0.142
- ELISA signal at 3.125 nM Fab [6]: 0.095

B2: Fab VH1-46_IGHD6-6*01_IGHJ1*01 S102A/S103P/S104F/H111F (APFF) & L6_IGKJ1*01 S28N/S30D/S31H S52T (Fab, V domains shown)
VH: QVQLVQSGAEVKKPGASVKVSCKASGYTFTSYYMHWVRQAPGQGLEWMGIINPSGGSTSYAQKFQGRVTMTRDTSTSTVYMELSSLRSEDTAVYYCAREEYAPFSAEYFQFWGQGTLVTVSS
VL: EIVLTQSPATLSLSPGERATLSCRASQNVDHYLAWYQQKPGQAPRLLIYDATNRATGIPARFSGSGSGTDFTLTISSLEPEDFAVYYCQQRSNWPPWTFGQGTKVEIKR
notes: Fab made in E. coli: VH in plasmid A (CH1, His6 and Flag tags), VL in plasmid C (kappa CL); also called H:APFF & L:NDH S52T; APFF / NDH/S52T
- ELISA signal at 25 nM Fab [1]: 0.323
- ELISA signal at 50 nM Fab [2]: 0.49
- ELISA signal at 100 nM Fab [3]: 0.653
- ELISA signal at 12.5 nM Fab [4]: 0.215
- ELISA signal at 6.25 nM Fab [5]: 0.13
- ELISA signal at 3.125 nM Fab [6]: 0.099

B3: Fab VH5-51_IGHD5-18*01>3_IGHJ4*01 & V3-4_IGLJ1*01 (Fab, V domains shown)
VH: EVQLVQSGAEVKKPGESLKISCKGSGYSFTSYWIGWVRQMPGKGLEWMGIIYPGDSDTRYSPSFQGQVTISADKSISTAYLQWSSLKASDTAMYYCARRGYSYGYDYFDYWGQGTLVTVSS
VL: QTVVTQEPSFSVSPGGTVTLTCGLSSGSVSTSYYPSWYQQTPGQAPRTLIYSTNTRSSGVPDRFSGSILGNKAALTITGAQADDESDYYCVLYMGSGISYVFGTGTKVTVL
notes: Fab expressed in E. coli; VH was cloned into Plasmid A (CH1, His6 and Flag tags) and VL into Plasmid E (lambda CL); also called wildtype; parent Hit Fab VH5-51_IGHD5-18*01>3_IGHJ4*01 & V3-4_IGLJ1*01
- Signal/Noise (0.04 µM) [7]: 14.7

B4: Fab VH5-51_IGHD5-18*01>3_IGHJ4*01 G100A & V3-4_IGLJ1*01 (Fab, V domains shown)
VH: EVQLVQSGAEVKKPGESLKISCKGSGYSFTSYWIGWVRQMPGKGLEWMGIIYPGDSDTRYSPSFQGQVTISADKSISTAYLQWSSLKASDTAMYYCARRAYSYGYDYFDYWGQGTLVTVSS
VL: QTVVTQEPSFSVSPGGTVTLTCGLSSGSVSTSYYPSWYQQTPGQAPRTLIYSTNTRSSGVPDRFSGSILGNKAALTITGAQADDESDYYCVLYMGSGISYVFGTGTKVTVL
notes: Fab with CH1 (Plasmid A, His6 and Flag tags) and lambda CL (Plasmid E)
- Signal/Noise (0.04 µM) [7]: 30.4

B5: Fab VH5-51_IGHD5-18*01>3_IGHJ4*01 G104A & V3-4_IGLJ1*01 (Fab, V domains shown)
VH: EVQLVQSGAEVKKPGESLKISCKGSGYSFTSYWIGWVRQMPGKGLEWMGIIYPGDSDTRYSPSFQGQVTISADKSISTAYLQWSSLKASDTAMYYCARRGYSYAYDYFDYWGQGTLVTVSS
VL: QTVVTQEPSFSVSPGGTVTLTCGLSSGSVSTSYYPSWYQQTPGQAPRTLIYSTNTRSSGVPDRFSGSILGNKAALTITGAQADDESDYYCVLYMGSGISYVFGTGTKVTVL
notes: as for B4
- Signal/Noise (0.04 µM) [7]: 15.5

B6: Fab VH5-51_IGHD5-18*01>3_IGHJ4*01 S102A & V3-4_IGLJ1*01 (Fab, V domains shown)
VH: EVQLVQSGAEVKKPGESLKISCKGSGYSFTSYWIGWVRQMPGKGLEWMGIIYPGDSDTRYSPSFQGQVTISADKSISTAYLQWSSLKASDTAMYYCARRGYAYGYDYFDYWGQGTLVTVSS
VL: QTVVTQEPSFSVSPGGTVTLTCGLSSGSVSTSYYPSWYQQTPGQAPRTLIYSTNTRSSGVPDRFSGSILGNKAALTITGAQADDESDYYCVLYMGSGISYVFGTGTKVTVL
notes: as for B4
- Signal/Noise (0.04 µM) [7]: 2

B7: Fab VH5-51_IGHD5-18*01>3_IGHJ4*01 Y103A & V3-4_IGLJ1*01 (Fab, V domains shown)
VH: EVQLVQSGAEVKKPGESLKISCKGSGYSFTSYWIGWVRQMPGKGLEWMGIIYPGDSDTRYSPSFQGQVTISADKSISTAYLQWSSLKASDTAMYYCARRGYSAGYDYFDYWGQGTLVTVSS
VL: QTVVTQEPSFSVSPGGTVTLTCGLSSGSVSTSYYPSWYQQTPGQAPRTLIYSTNTRSSGVPDRFSGSILGNKAALTITGAQADDESDYYCVLYMGSGISYVFGTGTKVTVL
notes: as for B4
- Signal/Noise (0.04 µM) [7]: 1.2

Source: patent publication US20120316071A1 (published 2012)
